Data reported in US20240310359A1.

Target: SERCA1a, mouse (endogenous, differentiated skeletal muscle cells) (mouse) (UniProt Q8R429)
Test: cell-based or functional assay

NHL-Del (mutant of TRIM32 without NHL repeats, expressed from pEGFP-N1 in mouse differentiated skeletal muscle cells), sequence (Q13049 1-361, stated change not applied): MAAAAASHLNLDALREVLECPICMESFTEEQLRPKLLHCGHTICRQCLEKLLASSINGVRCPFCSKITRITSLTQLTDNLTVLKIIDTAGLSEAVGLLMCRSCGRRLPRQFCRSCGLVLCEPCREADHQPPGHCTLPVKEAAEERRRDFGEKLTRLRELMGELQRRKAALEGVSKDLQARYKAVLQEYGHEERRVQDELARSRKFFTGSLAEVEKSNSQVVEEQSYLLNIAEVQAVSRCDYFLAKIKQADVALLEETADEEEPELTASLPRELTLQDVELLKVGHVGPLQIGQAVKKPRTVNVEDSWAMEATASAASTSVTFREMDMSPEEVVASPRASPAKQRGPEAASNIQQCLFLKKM
SERCA1a, mouse (endogenous, differentiated skeletal muscle cells) (mouse), sequence (Q8R429 whole entry): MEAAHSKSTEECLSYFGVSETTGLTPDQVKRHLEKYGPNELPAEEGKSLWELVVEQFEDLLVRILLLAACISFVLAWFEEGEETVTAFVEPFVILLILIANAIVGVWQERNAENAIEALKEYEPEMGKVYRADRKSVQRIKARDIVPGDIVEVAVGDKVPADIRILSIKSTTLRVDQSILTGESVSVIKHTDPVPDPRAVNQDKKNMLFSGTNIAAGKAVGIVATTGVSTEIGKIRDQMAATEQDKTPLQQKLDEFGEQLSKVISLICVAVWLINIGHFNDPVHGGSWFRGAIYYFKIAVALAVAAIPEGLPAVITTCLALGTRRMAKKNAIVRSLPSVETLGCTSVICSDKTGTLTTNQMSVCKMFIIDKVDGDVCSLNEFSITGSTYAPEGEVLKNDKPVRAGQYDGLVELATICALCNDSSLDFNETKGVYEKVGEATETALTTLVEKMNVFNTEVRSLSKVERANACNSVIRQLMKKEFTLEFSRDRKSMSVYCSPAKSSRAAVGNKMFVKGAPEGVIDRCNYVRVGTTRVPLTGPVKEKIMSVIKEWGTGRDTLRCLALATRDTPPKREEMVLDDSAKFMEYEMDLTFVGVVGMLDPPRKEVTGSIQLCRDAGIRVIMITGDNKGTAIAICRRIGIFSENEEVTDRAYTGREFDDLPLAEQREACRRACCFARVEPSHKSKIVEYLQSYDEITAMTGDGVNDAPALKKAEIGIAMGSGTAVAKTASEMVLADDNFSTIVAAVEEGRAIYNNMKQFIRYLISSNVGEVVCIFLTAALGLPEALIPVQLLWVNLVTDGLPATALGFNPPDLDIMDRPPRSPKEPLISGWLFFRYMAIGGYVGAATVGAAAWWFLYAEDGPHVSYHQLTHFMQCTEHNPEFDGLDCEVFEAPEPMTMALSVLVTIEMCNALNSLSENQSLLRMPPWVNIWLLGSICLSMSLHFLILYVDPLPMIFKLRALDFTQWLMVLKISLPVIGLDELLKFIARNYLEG
wild-type TRIM32 (expressed from pEGFP-N1 in mouse differentiated skeletal muscle cells) (from UniProt Q13049 1-653) (enzyme), sequence (Q13049 whole entry): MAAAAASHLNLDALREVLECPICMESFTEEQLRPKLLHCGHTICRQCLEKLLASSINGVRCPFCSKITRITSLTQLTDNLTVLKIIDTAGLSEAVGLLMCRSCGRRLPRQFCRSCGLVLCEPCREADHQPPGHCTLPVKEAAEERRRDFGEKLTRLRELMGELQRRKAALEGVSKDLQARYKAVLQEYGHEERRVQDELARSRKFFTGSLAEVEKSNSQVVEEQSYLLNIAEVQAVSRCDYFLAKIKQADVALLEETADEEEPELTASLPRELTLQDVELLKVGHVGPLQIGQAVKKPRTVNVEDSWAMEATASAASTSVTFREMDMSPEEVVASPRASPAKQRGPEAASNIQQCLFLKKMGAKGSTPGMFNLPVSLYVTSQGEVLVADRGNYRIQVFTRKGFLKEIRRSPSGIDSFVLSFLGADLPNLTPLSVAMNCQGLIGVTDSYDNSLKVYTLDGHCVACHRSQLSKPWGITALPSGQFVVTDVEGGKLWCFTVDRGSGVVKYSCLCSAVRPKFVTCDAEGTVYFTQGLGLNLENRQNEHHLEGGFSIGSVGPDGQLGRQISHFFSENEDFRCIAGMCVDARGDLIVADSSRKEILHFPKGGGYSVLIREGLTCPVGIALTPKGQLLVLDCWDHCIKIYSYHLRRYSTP
wild-type TRIM32 (expressed from pEGFP-N1 in mouse differentiated skeletal muscle cells) (from UniProt Q13049 1-653), sequence (Q13049 whole entry): as above

Caffeine response (normalized ratio to vector control) | KCl response (normalized ratio to vector control) | Releasable Ca^2+ level from SR (normalized ratio to vector control) | Substance
0.97 | 0.94 | 0.99 | NHL-Del (mutant of TRIM32 without NHL repeats, expressed from pEGFP-N1 in mouse differentiated skeletal muscle cells) (from UniProt Q13049 1-361) (enzyme)
1.22 | – | – | wild-type TRIM32 (expressed from pEGFP-N1 in mouse differentiated skeletal muscle cells) (from UniProt Q13049 1-653)
– | 1.27 | 1.48 | wild-type TRIM32 (expressed from pEGFP-N1 in mouse differentiated skeletal muscle cells) (from UniProt Q13049 1-653) (enzyme)
